Results published in patent US20090188010A1.

Assays:
Experiment in all cases: cell-based or functional assay
[1] = biological target: chymotrypsins in unfractionated gut extracts from H. punctigera larvae
[2] = biological target: Bovine chymotrypsin (bovine) (UniProt P00766)
[3] = biological target: NaPI-insensitive chymotrypsin from H. punctigera (HpCh5), native enzyme from the larval gut (Helicoverpa punctigera)
NaPI-insensitive chymotrypsin from H. punctigera (HpCh5), native enzyme from the larval gut (Helicoverpa punctigera), sequence (chain, as listed by the source limits assumed): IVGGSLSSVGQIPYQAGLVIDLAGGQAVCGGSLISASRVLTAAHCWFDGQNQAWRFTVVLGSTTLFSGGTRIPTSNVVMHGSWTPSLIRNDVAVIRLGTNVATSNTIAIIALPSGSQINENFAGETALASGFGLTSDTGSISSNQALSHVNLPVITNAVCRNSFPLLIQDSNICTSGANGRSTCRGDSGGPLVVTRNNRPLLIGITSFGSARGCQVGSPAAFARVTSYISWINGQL

soybean trypsin inhibitor, sequence (P01070 25-205): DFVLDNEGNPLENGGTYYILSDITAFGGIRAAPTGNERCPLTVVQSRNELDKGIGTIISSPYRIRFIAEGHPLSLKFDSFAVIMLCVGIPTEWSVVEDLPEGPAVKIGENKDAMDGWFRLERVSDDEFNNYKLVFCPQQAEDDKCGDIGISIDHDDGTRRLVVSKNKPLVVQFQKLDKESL
soybean Bowman Birk inhibitor, sequence (P01055 40-110 limits assumed): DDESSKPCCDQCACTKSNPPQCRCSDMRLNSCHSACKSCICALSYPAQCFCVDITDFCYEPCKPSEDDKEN
lima bean trypsin inhibitor (Sigma), sequence (P01056 whole entry): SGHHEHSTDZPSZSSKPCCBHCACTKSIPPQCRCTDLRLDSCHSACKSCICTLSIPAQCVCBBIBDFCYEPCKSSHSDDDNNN

| degree of inhibition of gut chymotrypsin activity of control insects, 80 nM C1 (FIG. 2F) [1] [%] | % Inhibition of chymotrypsin activity at the maximum concentration tested (5 µM) [2] [%] | IC50 of inhibition of chymotrypsin activity [2] [nM] | % Inhibition of chymotrypsin activity at the maximum concentration tested (>20 µM) [3] [%] | IC50 of inhibition of chymotrypsin activity [3] [nM] | % Inhibition of chymotrypsin activity at the maximum concentration tested (10 µM) [3] [%] | % Inhibition of chymotrypsin activity at the maximum concentration tested (>20 µM) [2] [%] | Substance |
| --- | --- | --- | --- | --- | --- | --- | --- |
| 75 | – | – | – | – | – | – | C1 monomer, chymotrypsin inhibitor from the N. alata proteinase inhibitor precursor, HPLC purified |
| – | 100 | 200 | 89 | 3000 | – | – | lima bean trypsin inhibitor (Sigma) (from UniProt P01056 1-83) |
| – | 100 | 60 | – | 240 | 100 | – | soybean Bowman Birk inhibitor (from UniProt P01055 40-110) |
| – | – | 13000 | 82 | 33000 | – | 94 | soybean trypsin inhibitor (from UniProt P01070 25-205) |
